Results: US10800847

Tests used:
HLA-B*1401 (B64) (human) [1] = experiment: Luminex iBeads (#6), IVIg diluted 1:8
[2] = molecular target: HLA-A*7401 (A74) single antigen on Luminex beads (human); experiment: Luminex single antigen bead assay, iBeads (#6), IVIg 1:4
[3] = molecular target: HLA-A*8001 (A80) single antigen on Luminex beads (human); experiment: as above
[4] = molecular target: HLA-A*6802 (A68) single antigen on Luminex beads (human); experiment: as above
HLA-B*1801 (B18) (human) = experiment: Luminex iBeads (#6), IVIg diluted 1:4
HLA-B*1502 (B75) (human) = experiment: Luminex iBeads (#6), IVIg diluted 1:4
HLA-B*0801 (B8) (human) = experiment: Luminex iBeads (#6), IVIg diluted 1:4
HLA-B*1301 (B13) (human) = experiment: Luminex iBeads (#6), IVIg diluted 1:4
HLA-B*1503 (B72) (human) = experiment: Luminex iBeads (#6), IVIg diluted 1:4
HLA-B*1513 (B77) (human) = experiment: Luminex iBeads (#6), IVIg diluted 1:4
HLA-B*1510 (B71) (human) = experiment: Luminex iBeads (#6), IVIg diluted 1:4
HLA-B*0702 (B7) (human) = experiment: Luminex iBeads (#6), IVIg diluted 1:4
HLA-B*1402 (B65) (human) = experiment: Luminex iBeads (#6), IVIg diluted 1:4
[5] = molecular target: Serum albumin on negative control beads (HSA/BSA) (human or bovine); experiment: Luminex iBeads (#6), IVIg diluted 1:4
HLA-B*1511 (B75) (human) = experiment: Luminex iBeads (#6), IVIg diluted 1:4
HLA-B*1401 (B64) (human) [6] = experiment: Luminex iBeads (#6), IVIg diluted 1:4
HLA-B*1516 (B63) (human) = experiment: Luminex iBeads (#6), IVIg diluted 1:4
HLA-B*1501 (B62) (human) = experiment: Luminex iBeads (#6), IVIg diluted 1:4
[7] = molecular target: HLA-A*6602 (A66) single antigen on beads (human); experiment: Luminex, iBead vs regular bead, IVIg 1:4
[8] = molecular target: HLA-A*3301 (A33) single antigen on beads (human); experiment: Luminex, iBead vs regular bead, IVIg 1:4
[9] = molecular target: HLA-A*2902 (A29) single antigen on beads (human); experiment: Luminex, iBead vs regular bead, IVIg 1:4
[10] = molecular target: HLA-A*3201 (A32) single antigen on beads (human); experiment: Luminex, iBead vs regular bead, IVIg 1:4
[11] = molecular target: HLA-A*6601 (A66) single antigen on beads (human); experiment: Luminex, iBead vs regular bead, IVIg 1:4
[12] = molecular target: HLA-A*3002 (A30) single antigen on beads (human); experiment: Luminex, iBead vs regular bead, IVIg 1:4
[13] = molecular target: HLA-A*3401 (A34) single antigen on beads (human); experiment: Luminex, iBead vs regular bead, IVIg 1:4
[14] = molecular target: HLA-Cw*1701 (Cw17) (human); experiment: Luminex, regular beads (#7), 1:4
[15] = molecular target: HLA-Cw*0303 (Cw9) (human); experiment: Luminex, regular beads (#7), 1:4
[16] = molecular target: HLA-Cw*1203 (Cw12) (human); experiment: Luminex, regular beads (#7), 1:4
[17] = molecular target: HLA-Cw*0302 (Cw10) (human); experiment: Luminex, regular beads (#7), 1:4
HLA-B*8201 (B82) (human) = experiment: Luminex, regular beads (#7), 1:4
[18] = molecular target: HLA-Cw*1802 (Cw18) (human); experiment: Luminex, regular beads (#7), 1:4
[19] = molecular target: HLA-Cw*0304 (Cw10) (human); experiment: Luminex, regular beads (#7), 1:4
[20] = molecular target: HLA-Cw*1601 (Cw16) (human); experiment: Luminex, regular beads (#7), 1:4
[21] = molecular target: HLA-Cw*1502 (Cw15) (human); experiment: Luminex, regular beads (#7), 1:4
[22] = molecular target: HLA-Cw*0401 (Cw4) (human); experiment: Luminex, regular beads (#7), 1:4
[23] = molecular target: HLA-Cw*0102 (Cw1) (human); experiment: Luminex, regular beads (#7), 1:4
[24] = molecular target: HLA-Cw*1402 (Cw14) (human); experiment: Luminex, regular beads (#7), 1:4
[25] = molecular target: HLA-Cw*0702 (Cw7) (human); experiment: Luminex, regular beads (#7), 1:4
[26] = molecular target: HLA-Cw*0202 (Cw2) (human); experiment: Luminex, regular beads (#7), 1:4
[27] = molecular target: HLA-Cw*0602 (Cw6) (human); experiment: Luminex, regular beads (#7), 1:4
[28] = molecular target: HLA-B*3501 (B35) single antigen on Luminex beads (human); experiment: Luminex single antigen, iBead vs regular bead, IVIg 1:8
[29] = molecular target: HLA-B*4006 (B61) single antigen on Luminex beads (human); experiment: as above
[30] = molecular target: HLA-B*4002 (B61) single antigen on Luminex beads (human); experiment: as above
[31] = molecular target: HLA-B*4201 (B42) single antigen on Luminex beads (human); experiment: as above
[32] = molecular target: HLA-B*4501 (B45) single antigen on Luminex beads (human); experiment: as above
[33] = molecular target: HLA-B*2708 (B27) single antigen on Luminex beads (human); experiment: as above

## IVIg GamaSTAN S/D (Talecris Biotherapeutics, USA) (antibody)
HLA-B*1401 (B64) (human) [1]
  MFI: 269 MFI

## IVIg Sandoglobulin (Novartis, Basel, Switzerland) (antibody)
[2]
  MFI: 316 MFI
[3]
  MFI: 564 MFI
[4]
  MFI: 596 MFI
HLA-B*1801 (B18) (human)
  MFI: 114 MFI
HLA-B*1502 (B75) (human)
  MFI: 245 MFI
HLA-B*0801 (B8) (human)
  MFI: 274 MFI
HLA-B*1301 (B13) (human)
  MFI: 504 MFI
HLA-B*1503 (B72) (human)
  MFI: 0 MFI
HLA-B*1513 (B77) (human)
  MFI: 445 MFI
HLA-B*1510 (B71) (human)
  MFI: 271 MFI
HLA-B*0702 (B7) (human)
  MFI: 436 MFI
HLA-B*1402 (B65) (human)
  MFI: 152 MFI
[5]
  MFI: 667 MFI
HLA-B*1511 (B75) (human)
  MFI: 552 MFI
HLA-B*1401 (B64) (human) [6]
  MFI: 206 MFI
HLA-B*1516 (B63) (human)
  MFI: 756 MFI
HLA-B*1501 (B62) (human)
  MFI: 148 MFI
[7]
  Difference % (iBead MFI vs regular bead MFI): 111%
[8]
  Difference % (iBead MFI vs regular bead MFI): 270%
[9]
  Difference % (iBead MFI vs regular bead MFI): 366%
[10]
  Difference % (iBead MFI vs regular bead MFI): 202%
[11]
  Difference % (iBead MFI vs regular bead MFI): 742%
[12]
  Difference % (iBead MFI vs regular bead MFI): 202%
[13]
  Difference % (iBead MFI vs regular bead MFI): 80%
[14]
  MFI: 1490 MFI
[15]
  MFI: 703 MFI
[16]
  MFI: 985 MFI
[17]
  MFI: 1024 MFI
HLA-B*8201 (B82) (human)
  MFI: 639 MFI
[18]
  MFI: 1550 MFI
[19]
  MFI: 844 MFI
[20]
  MFI: 973 MFI
[21]
  MFI: 778 MFI
[22]
  MFI: 1570 MFI
[23]
  MFI: 998 MFI
[24]
  MFI: 991 MFI
[25]
  MFI: 1970 MFI
[26]
  MFI: 1280 MFI
[27]
  MFI: 1560 MFI

## Octagam (IVIg, Octapharma, Lachen, Switzerland) (antibody)
[28]
  Difference % (iBead against regular bead MFI): -100%
[29]
  Difference % (iBead against regular bead MFI): -97%
[30]
  Difference % (iBead against regular bead MFI): -100%
[31]
  Difference % (iBead against regular bead MFI): -100%
[32]
  Difference % (iBead against regular bead MFI): -68%
[33]
  Difference % (iBead against regular bead MFI): -100%
